In the supplement of paper PMC5998384:

Assays:
HeLa Kyoto [1] = experiment: solubility in G1/S (NP-40 vs SDS abundance) (log2 ratio); higher = more soluble; details: cell cycle stage: G1/S
HeLa Kyoto [2] = experiment: melting temperature (median over replicates), in situ; higher = more thermally stable
HeLa Kyoto [3] = experiment: solubility change mitosis vs G1/S (difference of NP-40 vs SDS log2 ratios) (log2 ratio difference); higher = more soluble in mitosis
HeLa Kyoto [4] = experiment: thermal stability score vs G1/S (z-score of summed log2 fold changes over temperatures); higher = more thermally stable than in G1/S
[5] = cell cycle stage: early G1 (4.5 h after nocodazole release)
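For melting temperature (median over replicates), in situ in this document: HeLa Kyoto cells synchronized by double thymidine or nocodazole block, proteins quantified by TMT10plex mass spectrometry, three independent biological replicates.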
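For solubility change mitosis vs G1/S (difference of NP-40 vs SDS log2 ratios) in this document: synchronized HeLa Kyoto cells (double thymidine block for G1/S, nocodazole release for mitosis), protein amounts in NP-40 versus SDS lysates quantified by mass spectrometry, three biological replicates.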
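For solubility in G1/S (NP-40 vs SDS abundance) in this document: HeLa Kyoto cells arrested at G1/S by double thymidine block, proteins quantified by TMT10plex mass spectrometry in mild NP-40 versus SDS extracts, three biological replicates.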
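For thermal stability score vs G1/S (z-score of summed log2 fold changes over temperatures) in this document: synchronized HeLa Kyoto cells, proteins quantified by TMT10plex mass spectrometry, three biological replicates, mitosis taken 0.5 h after nocodazole release, G1/S directly after double thymidine block.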

Chain of MCTP2 (chain, as listed by the source): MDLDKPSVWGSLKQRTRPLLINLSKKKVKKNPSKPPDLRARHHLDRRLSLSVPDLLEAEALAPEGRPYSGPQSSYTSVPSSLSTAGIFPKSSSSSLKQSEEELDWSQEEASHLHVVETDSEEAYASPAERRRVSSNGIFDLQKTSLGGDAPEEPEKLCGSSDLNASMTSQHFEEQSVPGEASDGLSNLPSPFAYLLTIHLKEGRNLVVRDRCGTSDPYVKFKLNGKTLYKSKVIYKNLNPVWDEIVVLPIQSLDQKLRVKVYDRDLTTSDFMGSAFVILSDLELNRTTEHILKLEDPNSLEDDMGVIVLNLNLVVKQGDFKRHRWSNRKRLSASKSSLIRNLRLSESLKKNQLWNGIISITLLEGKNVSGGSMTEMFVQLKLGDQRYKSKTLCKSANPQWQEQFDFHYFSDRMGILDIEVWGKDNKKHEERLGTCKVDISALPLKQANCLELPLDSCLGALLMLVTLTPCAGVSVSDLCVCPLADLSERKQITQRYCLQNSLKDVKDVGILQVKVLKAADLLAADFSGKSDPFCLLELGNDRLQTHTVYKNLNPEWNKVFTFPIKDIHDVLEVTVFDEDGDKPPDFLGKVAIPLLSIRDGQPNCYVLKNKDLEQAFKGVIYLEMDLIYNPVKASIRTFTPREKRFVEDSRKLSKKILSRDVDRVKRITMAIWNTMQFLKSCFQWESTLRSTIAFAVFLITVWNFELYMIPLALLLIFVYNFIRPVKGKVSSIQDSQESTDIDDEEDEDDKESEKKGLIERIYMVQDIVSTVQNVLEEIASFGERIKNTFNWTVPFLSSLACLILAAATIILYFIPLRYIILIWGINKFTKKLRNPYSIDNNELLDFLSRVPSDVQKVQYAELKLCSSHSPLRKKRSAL
Chain of OCRL (chain, as listed by the source): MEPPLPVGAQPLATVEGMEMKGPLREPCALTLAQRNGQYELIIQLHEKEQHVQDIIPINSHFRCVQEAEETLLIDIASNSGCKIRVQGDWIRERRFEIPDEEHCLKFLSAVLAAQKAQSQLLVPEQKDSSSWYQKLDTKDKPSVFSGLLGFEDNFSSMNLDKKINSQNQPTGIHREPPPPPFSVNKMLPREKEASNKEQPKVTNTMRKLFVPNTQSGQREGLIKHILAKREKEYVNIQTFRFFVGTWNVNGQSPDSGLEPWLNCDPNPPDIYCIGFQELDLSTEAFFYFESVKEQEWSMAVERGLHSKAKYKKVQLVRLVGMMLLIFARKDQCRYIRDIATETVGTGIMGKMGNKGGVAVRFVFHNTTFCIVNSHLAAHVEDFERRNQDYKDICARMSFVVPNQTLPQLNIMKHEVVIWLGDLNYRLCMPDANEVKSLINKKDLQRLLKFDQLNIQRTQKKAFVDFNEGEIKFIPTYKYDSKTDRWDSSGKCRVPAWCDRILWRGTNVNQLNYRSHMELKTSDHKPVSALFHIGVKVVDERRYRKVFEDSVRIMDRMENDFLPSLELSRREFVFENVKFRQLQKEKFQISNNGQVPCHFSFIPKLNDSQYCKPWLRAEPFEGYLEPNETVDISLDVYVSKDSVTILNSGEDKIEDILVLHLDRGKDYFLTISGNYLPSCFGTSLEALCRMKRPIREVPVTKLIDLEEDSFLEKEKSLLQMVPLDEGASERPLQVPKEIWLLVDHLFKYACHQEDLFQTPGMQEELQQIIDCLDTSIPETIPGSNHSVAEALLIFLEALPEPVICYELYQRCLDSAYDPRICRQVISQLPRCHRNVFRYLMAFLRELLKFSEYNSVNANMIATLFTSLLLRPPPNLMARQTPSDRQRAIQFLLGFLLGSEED

Substance	solubility in G1/S (log2) (HeLa Kyoto [1])	melting temperature (HeLa Kyoto [2]; cell cycle stage: G1/S) [°C]	melting temperature (HeLa Kyoto [2]; cell cycle stage: mitosis) [°C]	solubility change mitosis (log2) (HeLa Kyoto [3])	thermal stability score (HeLa Kyoto [4]; [5])	thermal stability score (HeLa Kyoto [4]; cell cycle stage: mitosis)
MDAPRQVVNFGPGPAKLPHSVLLEIQKELLDYKGVGISVLEMSHRSSDFAKIINNTENLVRELLAVPDNYKVIFLQGGGCGQFSAVPLNLIGLKAGRCADYVVTGAWSAKAAEEAKKFGTINIVHPKLGSYTKIPDPSTWNLNPDASYVYYCANETVHGVEFDFIPDVKGAVLVCDMSSNFLSKPVDVSKFGVIFAGAQKNVGSAGVTVVIVRDDLLGFALRECPSVLEYKVQAGNSSLYNTPPCFSIYVMGLVLEWIKNNGGAAAMEKLSSIKSQTIYEIIDNSQGFYVCPVEPQNRSKMNIPFRIGNAKGDDALEKRFLDKALELNMLSLKGHRSVGGIRASLYNAVTIEDVQKLAAFMKKFLEMHQL [PSAT1]	0.15	55.6	55.6	-0.136	-0.482	-0.769
MEVPPPAPRSFLCRALCLFPRVFAAEAVTADSEVLEERQKRLPYVPEPYYPESGWDRLRELFGKDEQQRISKDLANICKTAATAGIIGWVYGGIPAFIHAKQQYIEQSQAEIYHNRFDAVQSAHRAATRGFIRYGWRWGWRTAVFVTIFNTVNTSLNVYRNKDALSHFVIAGAVTGSLFRINVGLRGLVAGGIIGALLGTPVGGLLMAFQKYSGETVQERKQKDRKALHELKLEEWKGRLQVTEHLPEKIESSLQEDEPENDAKKIEALLNLPRNPSVIDKQDKD [TIMMDC1]	-0.03	55.6	55.2	0.01	-2.95	-2.24
MAVAAAAAAAGPAGAGGGRAQRSGLLEVLVRDRWHKVLVNLSEDALVLSSEEGAAAYNGIGTATNGSFCRGAGAGHPGAGGAQPPDSPAGVRTAFTDLPEQVPESISNQKRGVKVLKQELGGLGISIKGGKENKMPILISKIFKGLAADQTQALYVGDAILSVNGADLRDATHDEAVQALKRAGKEVLLEVKYMREATPYVKKGSPVSEIGWETPPPESPRLGGSTSDPPSSQSFSFHRDRKSIPLKMCYVTRSMALADPENRQLEIHSPDAKHTVILRSKDSATAQAWFSAIHSNVNDLLTRVIAEVREQLGKTGIAGSREIRHLGWLAEKVPGESKKQWKPALVVLTEKDLLIYDSMPRRKEAWFSPVHTYPLLATRLVHSGPGKGSPQAGVDLSFATRTGTRQGIETHLFRAETSRDLSHWTRSIVQGCHNSAELIAEISTACTYKNQECRLTIHYENGFSITTEPQEGAFPKTIIQSPYEKLKMSSDDGIRMLYLDFGGKDGEIQLDLHSCPKPIVFIIHSFLSAKITRLGLVA [SNTB1]	0.0289	49.9	50.2	0.0627	0.836	0.333
MSAKAISEQTGKELLYKFICTTSAIQNRFKYARVTPDTDWARLLQDHPWLLSQNLVVKPDQLIKRRGKLGLVGVNLTLDGVKSWLKPRLGQEATVGKATGFLKNFLIEPFVPHSQAEEFYVCIYATREGDYVLFHHEGGVDVGDVDAKAQKLLVGVDEKLNPEDIKKHLLVHAPEDKKEILASFISGLFNFYEDLYFTYLEINPLVVTKDGVYVLDLAAKVDATADYICKVKWGDIEFPPPFGREAYPEEAYIADLDAKSGASLKLTLLNPKGRIWTMVAGGGASVVYSDTICDLGGVNELANYGEYSGAPSEQQTYDYAKTILSLMTREKHPDGKILIIGGSIANFTNVAATFKGIVRAIRDYQGPLKEHEVTIFVRRGGPNYQEGLRVMGEVGKTTGIPIHVFGTETHMTAIVGMALGHRPIPNQPPTAAHTANFLLNASGSTSTPAPSRTASFSESRADEVAPAKKAKPAMPQDSVPSPRSLQGKSTTLFSRHTKAIVWGMQTRAVQGMLDFDYVCSRDEPSVAAMVYPFTGDHKQKFYWGHKEILIPVFKNMADAMRKHPEVDVLINFASLRSAYDSTMETMNYAQIRTIAIIAEGIPEALTRKLIKKADQKGVTIIGPATVGGIKPGCFKIGNTGGMLDNILASKLYRPGSVAYVSRSGGMSNELNNIISRTTDGVYEGVAIGGDRYPGSTFMDHVLRYQDTPGVKMIVVLGEIGGTEEYKICRGIKEGRLTKPIVCWCIGTCATMFSSEVQFGHAGACANQASETAVAKNQALKEAGVFVPRSFDELGEIIQSVYEDLVANGVIVPAQEVPPPTVPMDYSWARELGLIRKPASFMTSICDERGQELIYAGMPITEVFKEEMGIGGVLGLLWFQKRLPKYSCQFIEMCLMVTADHGPAVSGAHNTIICARAGKDLVSSLTSGLLTIGDRFGGALDAAAKMFSKAFDSGIIPMEFVNKMKKEGKLIMGIGHRVKSINNPDMRVQILKDYVRQHFPATPLLDYALEVEKITTSKKPNLILNVDGLIGVAFVDMLRNCGSFTREEADEYIDIGALNGIFVLGRSMGFIGHYLDQKRLKQGLYRHPWDDISYVLPEHMSM [ACLY]	-0.0323	52.2	52.6	-0.156	2.8	4.04
OCRL	-0.137	51.4	51.8	-0.122	-0.419	-0.472
MVWKVAVFLSVALGIGAVPIDDPEDGGKHWVVIVAGSNGWYNYRHQADACHAYQIIHRNGIPDEQIVVMMYDDIAYSEDNPTPGIVINRPNGTDVYQGVPKDYTGEDVTPQNFLAVLRGDAEAVKGIGSGKVLKSGPQDHVFIYFTDHGSTGILVFPNEDLHVKDLNETIHYMYKHKMYRKMVFYIEACESGSMMNHLPDNINVYATTAANPRESSYACYYDEKRSTYLGDWYSVNWMEDSDVEDLTKETLHKQYHLVKSHTNTSHVMQYGNKTISTMKVMQFQGMKRKASSPVPLPPVTHLDLTPSPDVPLTIMKRKLMNTNDLEESRQLTEEIQRHLDARHLIEKSVRKIVSLLAASEAEVEQLLSERAPLTGHSCYPEALLHFRTHCFNWHSPTYEYALRHLYVLVNLCEKPYPLHRIKLSMDHVCLGHY [LGMN]	0.416	53.8	54.2	-0.0973	5.08	5.7
MNSSTSTMSEEPDALSVVNQLRDLAADPLNRRAIVQDQGCLPGLILFMDHPNPPVVHSALLALRYLAECRANREKMKGELGMMLSLQNVIQKTTTPGETKLLASEIYDILQSSNMADGDSFNEMNSRRRKAQFFLGTTNKRAKTVVLHIDGLDDTSRRNLCEEALLKIKGVISFTFQMAVQRCVVRIRSDLKAEALASAIASTKVMKAQQVVKSESGEEMLVPFQDTPVEVEQNTELPDYLPEDESPTKEQDKAVSRVGSHPEGGASWLSTAANFLSRSFYW [ARMC1]	0.386	50.6	50.8	0.0691	0.134	0.316
MIKLFSLKQQKKEEESAGGTKGSSKKASAAQLRIQKDINELNLPKTCDISFSDPDDLLNFKLVICPDEGFYKSGKFVFSFKVGQGYPHDPPKVKCETMVYHPNIDLEGNVCLNILREDWKPVLTINSIIYGLQYLFLEPNPEDPLNKEAAEVLQNNRRLFEQNVQRSMRGGYIGSTYFERCLK [UBE2M]	0.576	51.1	51.2	-0.0392	-1.49	-1.29
MRLLPRLLLLLLLVFPATVLFRGGPRGLLAVAQDLTEDEETVEDSIIEDEDDEAEVEEDEPTDLVEDKEEEDVSGEPEASPSADTTILFVKGEDFPANNIVKFLVGFTNKGTEDFIVESLDASFRYPQDYQFYIQNFTALPLNTVVPPQRQATFEYSFIPAEPMGGRPFGLVINLNYKDLNGNVFQDAVFNQTVTVIEREDGLDGETIFMYMFLAGLGLLVIVGLHQLLESRKRKRPIQKVEMGTSSQNDVDMSWIPQETLNQINKASPRRLPRKRAQKRSVGSDE [SSR1]	0.474	57.4	58.8	0.0174	0.9	0.359
MRSSCVLLTALVALAAYYVYIPLPGSVSDPWKLMLLDATFRGAQQVSNLIHYLGLSHHLLALNFIIVSFGKKSAWSSAQVKVTDTDFDGVEVRVFEGPPKPEEPLKRSVVYIHGGGWALASAKIRYYDELCTAMAEELNAVIVSIEYRLVPKVYFPEQIHDVVRATKYFLKPEVLQKYMVDPGRICISGDSAGGNLAAALGQQFTQDASLKNKLKLQALIYPVLQALDFNTPSYQQNVNTPILPRYVMVKYWVDYFKGNYDFVQAMIVNNHTSLDVEEAAAVRARLNWTSLLPASFTKNYKPVVQTTGNARIVQELPQLLDARSAPLIADQAVLQLLPKTYILTCEHDVLRDDGIMYAKRLESAGVEVTLDHFEDGFHGCMIFTSWPTNFSVGIRTRNSYIKWLDQNL [NCEH1]	0.156	57.4	57.7	-0.118	-0.627	-0.868
MSSSLGKEKDSKEKDPKVPSAKEREKEAKASGGFGKESKEKEPKTKGKDAKDGKKDSSAAQPGVAFSVDNTIKRPNPAPGTRKKSSNAEVIKELNKCREENSMRLDLSKRSIHILPSSIKELTQLTELYLYSNKLQSLPAEVGCLVNLMTLALSENSLTSLPDSLDNLKKLRMLDLRHNKLREIPSVVYRLDSLTTLYLRFNRITTVEKDIKNLSKLSMLSIRENKIKQLPAEIGELCNLITLDVAHNQLEHLPKEIGNCTQITNLDLQHNELLDLPDTIGNLSSLSRLGLRYNRLSAIPRSLAKCSALEELNLENNNISTLPESLLSSLVKLNSLTLARNCFQLYPVGGPSQFSTIYSLNMEHNRINKIPFGIFSRAKVLSKLNMKDNQLTSLPLDFGTWTSMVELNLATNQLTKIPEDVSGLVSLEVLILSNNLLKKLPHGLGNLRKLRELDLEENKLESLPNEIAYLKDLQKLVLTNNQLTTLPRGIGHLTNLTHLGLGENLLTHLPEEIGTLENLEELYLNDNPNLHSLPFELALCSKLSIMSIENCPLSHLPPQIVAGGPSFIIQFLKMQGPYRAMV [SHOC2]	0.421	52.2	52.4	-0.0856	-0.46	-1.35
MEGGPAVCCQDPRAELVERVAAIDVTHLEEADGGPEPTRNGVDPPPRARAASVIPGSTSRLLPARPSLSARKLSLQERPAGSYLEAQAGPYATGPASHISPRAWRRPTIESHHVAISDAEDCVQLNQYKLQSEIGKGAYGVVRLAYNESEDRHYAMKVLSKKKLLKQYGFPRRPPPRGSQAAQGGPAKQLLPLERVYQEIAILKKLDHVNVVKLIEVLDDPAEDNLYLVFDLLRKGPVMEVPCDKPFSEEQARLYLRDVILGLEYLHCQKIVHRDIKPSNLLLGDDGHVKIADFGVSNQFEGNDAQLSSTAGTPAFMAPEAISDSGQSFSGKALDVWATGVTLYCFVYGKCPFIDDFILALHRKIKNEPVVFPEEPEISEELKDLILKMLDKNPETRIGVPDIKLHPWVTKNGEEPLPSEEEHCSVVEVTEEEVKNSVRLIPSWTTVILVKSMLRKRSFGNPFEPQARREERSMSAPGNLLVKEGFGEGGKSPELPGVQEDEAAS [CAMKK1]	0.186	–	50.4	0.147	-0.286	0.129
MCTP2	-0.274	50.2	50.1	-0.136	0.55	0.479
MWSEGRYEYERIPRERAPPRSHPSDGYNRLVNIVPKKPPLLDRPGEGSYNRYYSHVDYRDYDEGRSFSHDRRSGPPHRGDESGYRWTRDDHSASRQPEYRDMRDGFRRKSFYSSHYARERSPYKRDNTFFRESPVGRKDSPHSRSGSSVSSRSYSPERSKSYSFHQSQHRKSVRPGASYKRQNEGNPERDKERPVQSLKTSRDTSPSSGSAVSSSKVLDKPSRLTEKELAEAASKWAAEKLEKSDESNLPEISEYEAGSTAPLFTDQPEEPESNTTHGIELFEDSQLTTRSKAIASKTKEIEQVYRQDCETFGMVVKMLIEKDPSLEKSIQFALRQNLHEIESAGQTWQQVPPVRNTEMDHDGTPENEGEETAQSAPQPPQAPQPLQPRKKRVRRTTQLRRTTGAPDITWGMLKKTTQEAERILLRTQTPFTPENLFLAMLSVVHCNSRKDVKPENKQ [PPHLN1]	-0.763	52.2	50.4	0.849	0.616	1.63
